Test results: PMC3915903 (Cell Research, 2013)
Numbering of substitutions follows the chain as printed. Names may count otherwise. One block for each binder: values may come before it.

Biological target: GST-tagged PP2A core enzyme (AC heterodimer) (human, UniProt P30153;P67775)
Assay: pull-down

Chain of GST-tagged PP2A core enzyme (AC heterodimer) (P30153 whole entry, chain 1 of 2): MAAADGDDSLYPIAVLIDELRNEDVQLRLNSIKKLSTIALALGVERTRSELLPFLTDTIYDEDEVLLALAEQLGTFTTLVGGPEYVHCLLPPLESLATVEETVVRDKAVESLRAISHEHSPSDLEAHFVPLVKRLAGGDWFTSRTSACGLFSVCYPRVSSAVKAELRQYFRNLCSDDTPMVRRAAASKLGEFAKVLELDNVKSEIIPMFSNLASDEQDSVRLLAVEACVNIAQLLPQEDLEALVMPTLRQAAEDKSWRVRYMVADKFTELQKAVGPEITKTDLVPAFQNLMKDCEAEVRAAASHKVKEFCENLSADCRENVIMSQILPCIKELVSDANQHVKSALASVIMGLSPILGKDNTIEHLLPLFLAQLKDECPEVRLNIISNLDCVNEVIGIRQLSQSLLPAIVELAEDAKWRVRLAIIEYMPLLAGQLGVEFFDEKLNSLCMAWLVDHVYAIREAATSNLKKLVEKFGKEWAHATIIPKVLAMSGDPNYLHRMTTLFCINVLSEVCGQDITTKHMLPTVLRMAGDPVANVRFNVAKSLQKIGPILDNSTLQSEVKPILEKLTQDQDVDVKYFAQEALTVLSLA
Chain of GST-tagged PP2A core enzyme (AC heterodimer) (P67775 whole entry, chain 2 of 2): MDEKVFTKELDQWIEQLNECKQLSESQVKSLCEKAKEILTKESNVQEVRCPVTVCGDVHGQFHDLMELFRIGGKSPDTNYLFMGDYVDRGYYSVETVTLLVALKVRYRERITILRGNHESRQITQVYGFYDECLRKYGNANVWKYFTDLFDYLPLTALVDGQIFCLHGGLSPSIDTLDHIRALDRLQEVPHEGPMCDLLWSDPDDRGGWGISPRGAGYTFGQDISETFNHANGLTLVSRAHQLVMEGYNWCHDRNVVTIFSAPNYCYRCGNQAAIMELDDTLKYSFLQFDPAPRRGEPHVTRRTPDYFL

B1: Human PTPA, wild-type (natural protein)
chain: MAEGERQPPPDSSEEAPPATQNFIIPKKEIHTVPDMGKWKRSQAYADYIGFILTLNEGVKGKKLTFEYRVSEAIEKLVALLNTLDRWIDETPPVDQPSRFGNKAYRTWYAKLDEEAENLVATVVPTHLAAAVPEVAVYLKESVGNSTRIDYGTGHEAAFAAFLCCLCKIGVLRVDDQIAIVFKVFNRYLEVMRKLQKTYRMEPAGSQGVWGLDDFQFLPFIWGSSQLIDHPYLEPRHFVDEKAVNENHKDYMFLECILFITEMKTGPFAEHSNQLWNISAVPSWSKVNQGLIRMYKAECLEKFPVIQHFKFGSLLPIHPVTSG
binding result: binds

B2: PTPA V281A (natural protein)
chain: B1 chain with V281A
binding result: binds

B3: PTPA M294K (natural protein)
chain: B1 chain with M294K
binding result: binds

B5: PTPA V209D (natural protein)
chain: B1 chain with V209D
binding result: binds

More lines, now with the values ahead:

binding result: binds
B4: PTPA R293E (natural protein)
chain: B1 chain with R293E

binding result: binds
B6: PTPA F100D (natural protein)
chain: B1 chain with F100D
